26 molecules from patent US20100280227A1 (Genentech, published 2010) can be followed below.

First the molecules themselves.
T1: mouse BR3 extracellular domain (mouse, UniProt Q9D8D0 1-64)
T1 construct: also called mBR3-ECD; mBR-ECD
T1 sequence: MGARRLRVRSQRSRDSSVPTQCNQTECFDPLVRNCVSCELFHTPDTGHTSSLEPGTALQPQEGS

B1: 3 (Fab, V domains shown)
VH: EVQLVESGGGLVQPGGSLRLSCAASGFTISSNSIHWVRQAPGKGLEWVAWVTPSGGSTDYADSVKGRFTISADTSKNTAYLQMNSLRAEDTAVYYCARRVCYNRLGVCAGGMDYWGQGTLVTVSS
VL: DIQMTQSPSSLSASVGDRVTITCRASQDVSTAVAWYQQKPGKAPKLLIYSASFLYSGVPSRFSGSGSGTDFTLTISSLQPEDFATYYCQQSRISPPTFGQGTKVEIKR
notes: also called V3-3
B2: 35 (Fab, V domains shown)
VH: B1 VH with S54G, G55V
VL: B1 VL with R92L, I93M, S94T
notes: also called V3-35
B3: 24 (Fab, V domains shown)
VH: B1 VH with T28S, S30R, N32I, V51I, S54F, G55N, S57T
VL: B1 VL with R92L, S94T
notes: also called V3-24
B4: 27 (Fab, V domains shown)
VH: B1 VH with V51I, G55D, S57N, R104H
VL: B1 VL with I93M
notes: also called V3-27
B5: 16 (Fab, V domains shown)
VH: B1 VH with T28S, V51I, S54T, G55H
VL: B1 VL with S94T
notes: also called V3-16
B6: 34 (Fab, V domains shown)
VH: B1 VH with T28S, S31N, N32H, G55Y, S57I
VL: B1 VL with I93T, S94T
notes: also called V3-34
B7: V3-46 phage clone (Fab, V domains shown)
VH: B1 VH with S31N, N32S, T52L, G55V, S57F
VL: B1 VL with R92Q
notes: also called V3-46 WT; clone 46
B8: 9 (Fab, V domains shown)
VH: B1 VH with V51I, G55D, S57N
VL: B1 VL with R92H, I93N, S94T
notes: also called V3-9
B9: 41 (Fab, V domains shown)
VH: B1 VH with T28S, S30R, S31N, T52L, G55N, S57V
VL: B1 VL with R92G
notes: also called V3-41; clone 41
B10: 19 (Fab, V domains shown)
VH: B1 VH with T28S, S30A, S31R, N32S, V51I, T52L, G55A
VL: B1 VL with S94T
notes: also called V3-19
B11: 5 (Fab, V domains shown)
VH: B1 VH with N32S, V51I, S54G, G55H
VL: B1 VL with S94T
notes: also called V3-5
B12: 37 (Fab, V domains shown)
VH: B1 VH with T28S, S31R, N32R, V51I, S54L, G55Y, D59H
VL: B1 VL
notes: also called V3-37
B13: Hu2.1-46 Fab (Fab, V domains shown)
VH: EVQLVESGGGLVQPGGSLRLSCAASGDSITRGYWNWVRQAPGKGLEWVGYINYSGTTYYNPSLKSRFTISRDTSKNTFYLQMNSLRAEDTAVYYCANSNFYGAMDYWGQGTLVTVSS
VL: DIQMTQSPSSLSASVGDRVTITCRASESVDDYGISFMHWYQQKPGKAPKLLIYRASDLESGVPSRFSGSGSGTDFTLTISSLQPEDFATYYCQQTSKDPWTFGQGTKVEIKR
notes: Fab
B14: Hu2.1-RL Fab (Fab, V domains shown)
VH: B13 VH with F78L, N97T, S98P, N99H, F100T
VL: B13 VL
notes: Fab
B15: Hu2.1-40 Fab (Fab, V domains shown)
VH: B13 VH with N97T, S98T, N99L, F100P
VL: B13 VL
notes: Fab
B16: Hu2.1-40L Fab (Fab, V domains shown)
VH: B13 VH with F78L, N97T, S98T, N99L, F100P
VL: B13 VL
notes: Fab
B17: Hu2.1-30 Fab (Fab, V domains shown)
VH: B13 VH with S98L, F100Y
VL: B13 VL
notes: Fab
B18: Hu2.1-94 Fab (Fab, V domains shown)
VH: B13 VH with F78L, N97T, N99H, F100N, Y101T, A103E
VL: B13 VL
notes: Fab
B19: Hu11G9-36 Fab (Fab, V domains shown)
VH: EVQLVESGGGLVQPGGSLRLSCAASGDSINFGYWNWVRQAPGKGLEWVGYISYSGSTYYNPSLKSRFTISRDTSKNTFYLQMNSLRAEDTAVYYCAALNDLFLYFDVWGQGTLVTVSS
VL: DIQMTQSPSSLSASVGDRVTITCRSSQSLVHSNGNTYLHWYQQKPGKAPKLLIYKVSNRFSGVPSRFSGSGSGTDFTLTISSLQPEDFATYYCSQSTHVPPFTFGQGTKVEIKR
notes: Fab
B20: Hu11G9-46 IgG (antibody, V domains shown)
VH: B19 VH with N30T, F31S, A97G, F102Y
VL: B19 VL
notes: humanized IgG
B21: Hu11G9-36 IgG (antibody, V domains shown)
VH: B19 VH
VL: B19 VL
notes: humanized IgG
B22: V3-46s-12 phage clone (Fab, V domains shown)
VH: B1 VH with S30A, N32S, T52L, G55V, S57F
VL: DIQMTQSPSSLSASVGDRVTITCRASEDISSAVAWYQQKPGKAPKLLIFAASFLYSGVPSRFSGSGSGTDFTLTISSLQPEDFATYYCQQSQISPPTFGQGTKVEIK
notes: differs from V3-46s in CDR-H1 as well
B23: V3-46s-1 phage clone (Fab, V domains shown)
VH: B1 VH with N32S, T52L, G55V, S57F
VL: B22 VL with S30A, S31T, A32S
B24: V3-46s-10 phage clone (Fab, V domains shown)
VH: B1 VH with N32S, T52L, G55V, S57F
VL: B22 VL with F53Y, Y55F, I93V
B25: V3-46s-7 phage clone (Fab, V domains shown)
VH: B1 VH with N32S, T52L, G55V, S57F
VL: B22 VL with A32S, A50S, Y55F, Q92E, I93V
B26: chimeric 9.1 Fab (Fab, V domains shown)
VH: EVKLVESGGGLVQPGGSLRLSCAISGFTVTAYYMSWVRQPPGKALEWLGFIRDKANGYTTEYNPSVKGRFTISRDNSQSIFYLQMNTLRAEDSATYYCAQVRRALDYWGQGTTVTVSA
VL: DIVMSQSPSSLAVSVGEKVTMSCKSSQSLLYSSNQNNYLAWYQQKPGQSPKLLIYWASTRESGVPDRFTGSGSGTDFTLTISSVKAEDLAVYYCQQYYTYPYTFGGGT
notes: Fab with murine variable domains; also called Ch 9.1 Fab

Where a chain is given by its changes, count along the chain named. Values joined by “and” are separate entries in the source; they are usually repeats but may differ in a detail not shown here. Identical values can stand only once.

One assay has as its target T2, human BR3 extracellular domain (human, UniProt Q96RJ3 1-61).
T2 construct: biotinylated where used as tracer; also called hBR3-ECD; BR3-ECD
Briefly: phage competition ELISA.
Details: not given
(In an ELISA, binding on a coated surface is turned into a signal by an enzyme label.)
As a reminder, the IC50 is the midpoint of a concentration-inhibition curve. The low end stands for greater potency in that assay, the high end for weaker potency in that assay. For the molecule B1, the concentration for half-maximal inhibition (IC50) turned out to be 1.3 nM.

For B2, the IC50 amounted to 0.8 nM.

The molecule B3 yielded an IC50 of 0.6 nM.

In turn, B4 gave an IC50 of 9.4 nM.

In turn, B5 gave an IC50 of 1.7 nM.

In the case of B6, the IC50 was found to be 0.3 nM.

B7 registered an IC50 of 0.2 nM.

The molecule B8 displayed an IC50 of 11.6 nM.

The molecule B9 returned an IC50 of 0.4 nM.

For the molecule B10, the IC50 came out at 1.3 nM.

On to B11, for which the IC50 worked out at 2.5 nM.

The molecule B12 displayed an IC50 of 0.7 nM.

The target in another assay is T1, mouse BR3 extracellular domain. Description: phage competition ELISA.
Details: not given
With B1, the IC50 came to 16.1 nM.

The molecule B2 returned an IC50 of 21.9 nM.

Molecule B3 showed an IC50 of 23 nM.

For B4, the IC50 was 1.4 nM.

B5 came in with an IC50 of 16.8 nM.

In turn, B6 had an IC50 of 6.4 nM.

Molecule B7 returned an IC50 of 0.8 nM.

Turning to B8, the IC50 came out at 6.1 nM.

As for B9, the IC50 was found to be 0.6 nM.

For the molecule B10, the IC50 came out at 1.8 nM.

Consider B11, for which the IC50 was determined as 40.9 nM.

B12: the IC50 worked out at 1.3 nM.

A further assay has as its target T2, human BR3 extracellular domain. Briefly: SPR, BR3 ECD on chip.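 Note: Anti-BR3 antibodies passed over the chip at high flow in PBS with 0.05% polysorbate 20, on and off rates fitted together globally to a 1:1 binding model.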
Details: not given
For orientation: SPR reads the build-up and loss of mass on a sensor chip optically.
In general, Kd refers to a measure of binding affinity in units of concentration. The koff is the first-order rate constant of dissociation. As usually defined, the kon is the rate constant with which the complex forms. In turn, B13 gave a Kd of 0.27 nM, a koff of 0.000693 s⁻¹ and a kon of 2.55e+06 M⁻¹ s⁻¹.

Take B14: the Kd is 10 nM, the koff is 0.00176 s⁻¹ and the kon is 180000 M⁻¹ s⁻¹.

For the molecule B15, the Kd came to 8.67 nM, the koff is 0.000923 s⁻¹ and the kon amounted to 110000 M⁻¹ s⁻¹.

As to B16, the Kd was 35.8 nM, the koff stood at 0.00156 s⁻¹ and the kon came out at 40000 M⁻¹ s⁻¹.

B17: the Kd was 0.08 nM and 0.059 nM; the koff was 0.000311 s⁻¹ and 0.000232 s⁻¹; the kon is 3.84e+06 M⁻¹ s⁻¹ and 3.94e+06 M⁻¹ s⁻¹.

In the case of B18, the Kd came out at 0.82 nM, the koff was 0.00114 s⁻¹ and the kon was 1.39e+06 M⁻¹ s⁻¹.

Consider B19, for which the Kd is 0.7 nM and 0.65 nM; the koff is 0.00105 s⁻¹ and 0.000954 s⁻¹; the kon was 1.49e+06 M⁻¹ s⁻¹ and 1.47e+06 M⁻¹ s⁻¹.

As for B20, the Kd was 0.025 nM, the koff is 4.2e-05 s⁻¹ and the kon worked out at 1.66e+06 M⁻¹ s⁻¹.

B21 yielded a Kd of 0.024 nM, a koff of 4.1e-05 s⁻¹ and a kon of 1.71e+06 M⁻¹ s⁻¹.

Another assay has the same target. Briefly: phage competition ELISA.
Details: not given
The source holds these as a separate data set.
With B22, the IC50 turned out to be 0.053 nM.

In the case of B23, the half-maximal inhibitory concentration (IC50) was found to be 0.07 nM.

In the case of B24, the IC50 amounted to 0.05 nM.

On to B25, for which the IC50 was 0.19 nM.

Another assay deals with T1, mouse BR3 extracellular domain. Briefly: phage competition ELISA.
Details: not given
The source holds these as a separate data set.
On to B22, for which the IC50 was 0.209 nM.

As to B23, the IC50 came to 0.3 nM.

As for B24, the IC50 worked out at 0.193 nM.

Take B25: the IC50 amounted to 0.96 nM.

The next assay concerns the target T3, variant human BR3-Fc fusion.
T3 construct: produced in CHO cells; also called vBR3-Fc; vhBR3-Fc
Briefly: SPR, vBR3-Fc on chip.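 Note: Anti-BR3 antibodies passed over chip-bound BR3-Fc in PBS with 0.05% polysorbate 20, on and off rates fitted together globally to a 1:1 binding model.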
Details: not given
Take B13: the Kd was 0.13 nM, the koff was found to be 0.000257 s⁻¹ and the kon was determined as 1.96e+06 M⁻¹ s⁻¹.

Regarding B14, the Kd was 11.2 nM, the koff is 0.00139 s⁻¹ and the kon worked out at 120000 M⁻¹ s⁻¹.

In turn, B15 had a Kd of 3.2 nM, an off-rate (koff) of 0.00123 s⁻¹ and a kon of 380000 M⁻¹ s⁻¹.

B16 showed a Kd of 3.49 nM, a koff of 0.00121 s⁻¹ and a kon of 350000 M⁻¹ s⁻¹.

Turning to B17, the Kd is 0.07 nM and 0.092 nM; the koff is 0.000157 s⁻¹ and 0.000222 s⁻¹; the kon is 2.18e+06 M⁻¹ s⁻¹ and 2.41e+06 M⁻¹ s⁻¹.

In the case of B18, the Kd was 1.67 nM, the koff stood at 0.000804 s⁻¹ and the kon was 480000 M⁻¹ s⁻¹.

As for B19, the Kd was 2.31 nM and 2.08 nM; the koff is 0.00104 s⁻¹ and 0.000968 s⁻¹; the kon is 450000 M⁻¹ s⁻¹ and 466000 M⁻¹ s⁻¹.

The molecule B20 registered a Kd of 0.288 nM, a koff of 0.000186 s⁻¹ and a kon of 648000 M⁻¹ s⁻¹.

As for B21, the affinity, expressed as Kd, was 0.4 nM; the koff stood at 0.000231 s⁻¹; the kon was found to be 576000 M⁻¹ s⁻¹.

Staying with this assay, now noted: 140 RU BR3-Fc immobilized.
B26: the Kd stood at 20 nM.

Staying with this assay, now noted: 380 RU BR3-Fc immobilized.
With B26, the Kd turned out to be 21.8 nM.
